Data reported in patent US20220017637A1 (Hoffmann-La Roche, published 2022).

B1: Molecule D: Her2 (trastuzumab CLC)-CD28 (SA_variant 8) 1+1 (bispecific antibody, human IgG1, kappa, L234A L235A)
heavy 1: not shown
light 1: QVQLVQSGAEVKKPGASVKVSCKASGYTFTSYYIHWVRQAPGQGLEWIGSIYPGNVQTNYNEKFKDRATLTVDTSISTAYMELSRLRSDDTAVYFCTRSHYGLDFNFDVWGQGTTVTVSSASVAAPSVFIFPPSDEQLKSGTASVVCLLNNFYPREAKVQWKVDNALQSGNSQESVTEQDSKDSTYSLSSTLTLSKADYEKHKVYACEVTHQGLSSPVTKSFNRGEC
heavy 2: not shown
light 2: DIQMTQSPSSLSASVGDRVTITCKASQDVSTAVAWYQQKPGKAPKLLIYSASFRYTGVPSRFSGSRSGTDFTLTISSLQPEDFATYYCQQHYTTPPTFGQGTKVEIKRTVAAPSVFIFPPSDRKLKSGTASVVCLLNNFYPREAKVQWKVDNALQSGNSQESVTEQDSKDSTYSLSSTLTLSKADYEKHKVYACEVTHQGLSSPVTKSFNRGEC
notes: huIgG1 PG-LALA CrossFab: VH/VL exchange in the CD28 Fab (knob), charged modifications in the Her2 Fab (hole); also called P1AF8338
B2: Molecule B: Her2 (pertuzumab CLC)-CD28 (SA_Variant 8) 1+1 format (bispecific antibody, human IgG1, kappa, L234A L235A)
heavy 1: not shown
light 1: B1 light 1
heavy 2: EVQLVESGGGLVQPGGSLRLSCAASGFTFNDYTMDWVRQAPGKGLEWVADVNPNSGGSIVNRRFKGRFTLSVDRSKNTLYLQMNSLRAEDTAVYYCARNLGPFFYFDYWGQGTLVTVSSASTKGPSVFPLAPSSKSTSGGTAALGCLVEDYFPEPVTVSWNSGALTSGVHTFPAVLQSSGLYSLSSVVTVPSSSLGTQTYICNVNHKPSNTKVDEKVEPKSCDKTHTCPPCPAPEAAGGPSVFLFPPKPKDTLMISRTPEVTCVVVDVSHEDPEVKFNWYVDGVEVHNAKTKPREEQYNSTYRVVSVLTVLHQDWLNGKEYKCKVSNKALGAPIEKTISKAKGQPREPQVCTLPPSRDELTKNQVSLSCAVKGFYPSDIAVEWESNGQPENNYKTTPPVLDSDGSFFLVSKLTVDKSRWQQGNVFSCSVMHEALHNHYTQKSLSLSP
light 2: B1 light 2
notes: huIgG1 PG-LALA CrossFab: VH/VL exchange in the CD28 Fab (knob), charged modifications in the Her2 Fab (hole); also called P1AF8305
B3: CD28(SA)_variant_25 (antibody, human IgG1, kappa, L234A L235A)
heavy: not shown
light: not shown
chain: DKTHTCPPCPAPEAAGGPSVFLFPPKPKDTLMISRTPEVTCVVVDVSHEDPEVKFNWYVDGVEVHNAKTKPREEQYNSTYRVVSVLTVLHQDWLNGKEYKCKVSNKALGAPIEKTISKAKGQPREPQVCTLPPSRDELTKNQVSLSCAVKGFYPSDIAVEWESNGQPENNYKTTPPVLDSDGSFFLVSKLTVDKSRWQQGNVFSCSVMHEALHNRFTQKSLSLSP
notes: tested from HEK supernatant, unpurified; also called P1AE3081
B4: CD28(SA)_variant_27 (antibody, human IgG1, kappa, L234A L235A)
heavy: not shown
light: not shown
chain: B3 chain
notes: tested from HEK supernatant, unpurified; also called P1AE3083
B5: CD28(SA)_variant_26 (antibody, human IgG1, kappa, L234A L235A)
heavy: not shown
light: not shown
chain: B3 chain
notes: tested from HEK supernatant, unpurified; also called P1AE3082
B6: CD28(SA)_variant_30 (antibody, human IgG1, kappa, L234A L235A)
heavy: not shown
light: DIQMTQSPSSLSASVGDRVTITCRASQNIYVWLNWYQQKPGKAPKLLIYKASNLYSGVPSRFSGSRSGTDFTLTISSLQPEDFATYYCQQGQTYPYTFGQGTKLEIKRTVAAPSVFIFPPSDRKLKSGTASVVCLLNNFYPREAKVQWKVDNALQSGNSQESVTEQDSKDSTYSLSSTLTLSKADYEKHKVYACEVTHQGLSSPVTKSFNRGEC
chain: B3 chain
notes: tested from HEK supernatant, unpurified; also called P1AE3086
B7: CD28(SA)_variant_31 (antibody, human IgG1, kappa, L234A L235A)
heavy: not shown
light: not shown
chain: B3 chain
notes: tested from HEK supernatant, unpurified; also called P1AE3087
B8: CD28(SA)_variant_29 (antibody, human IgG1, kappa, L234A L235A)
heavy: not shown
light: not shown
chain: B3 chain
notes: tested from HEK supernatant, unpurified; also called P1AE3085
B9: CD28(SA)_variant_15 (antibody, human IgG1, kappa, L234A L235A)
heavy: not shown
light: not shown
chain: B3 chain
notes: tested from HEK supernatant, unpurified; also called P1AE3071
B10: CD28(SA)_variant_12 (antibody, human IgG1, kappa, L234A L235A)
heavy: not shown
light: B6 light
chain: B3 chain
notes: tested from HEK supernatant, unpurified; also called P1AE3068
B11: CD28(SA)_variant_16 (antibody, human IgG1, kappa, L234A L235A)
heavy: not shown
light: not shown
chain: B3 chain
notes: tested from HEK supernatant, unpurified; also called P1AE3072
B12: CD28(SA)_variant_17 (antibody, human IgG1, kappa, L234A L235A)
heavy: not shown
light: not shown
chain: B3 chain
notes: tested from HEK supernatant, unpurified; also called P1AE3073
B13: CD28(SA)_variant_13 (antibody, human IgG1, kappa, L234A L235A)
heavy: not shown
light: not shown
chain: B3 chain
notes: tested from HEK supernatant, unpurified; also called P1AE3069
B14: Molecule A: Her2 (pertuzumab CLC_WT)-CD28 (SA_Variant 8) 1+1 format (bispecific antibody, human IgG1, kappa, L234A L235A)
heavy 1: not shown
light 1: B1 light 1
heavy 2: not shown
light 2: B1 light 2
notes: only the Fc knob chain carries PG-LALA; also called P1AF6741; Her2-CD28 (P1AF6741)

Each binder was assayed against T1, human CD28 on CHO cells (parental cell line CHO-k1 ATCC #CCL-61, modified to stably overexpress human CD28) (human, UniProt P10747 19-220) (assay: flow cytometry (MFI PE); panel title on the sheet: Binding to human CD28, CHO-k1-huCD28; R-PE F(ab')2 goat anti-human IgG Fcgamma secondary).
T1 construct: The whole entry (with signal peptide) is named; also called CHOk1-huCD28; CHOk1 huCD28

Binder | binding result
B1 | binds
B2 | binds

The binders below were run against T1, human CD28 on CHO cells (parental cell …) (assay: flow cytometry (MFI PE), one-armed IgG from supernatant on CHO-k1 cells stably overexpressing human CD28; PE-conjugated goat anti-human secondary).

Binder | binding result
B3 | binds
B4 | binds
B5 | binds
B6 | binds
B7 | binds
B8 | binds

Target: T1, human CD28 on CHO cells (parental cell …)
Test: as above
Remark: another data set of the same source

Binder | binding result
B9 | binds
B10 | binds
B11 | binds
B12 | binds
B13 | binds

Each binder was assayed against T2, Her2 expressed on the cell surface of the human breast cancer cell line KPL-4 (human, UniProt P04626 23-1255) (assay: flow cytometry (MFI PE) on KPL-4 cells; R-PE F(ab')2 goat anti-human IgG Fcgamma secondary).
T2 construct: endogenous Her2 of KPL-4 cells stood in the assay; also called ErbB2; human epidermal growth factor receptor-2

Binder | EC50 (read off the curve) [nM]
B14 | 6 to 7

What follows are binders tested against T1, human CD28 on CHO cells (parental cell …) (assay: flow cytometry (MFI PE) on CHOk1-huCD28 cells; R-PE F(ab')2 goat anti-human IgG Fcgamma secondary).

Binder | binding result
B14 | binds

What follows are binders tested against T2, Her2 expressed on the cell surface of … (assay: flow cytometry (MFI PE); panel title on the sheet: Binding to human Her2, KPL4; R-PE F(ab')2 goat anti-human IgG Fcgamma secondary).

Binder | EC50 (read off the curve) [nM]
B14 | ~3
B1 | ~3
B2 | ~3
